According to paper PMC10703496:

How the values were obtained:
[1] = target: ACE2(18–740)-QMP: truncated dimeric human ACE2 (residues 18–740) fused to the N-terminal end of engi (human) (UniProt Q9BYF1); experiment: SPR; pH 5.5
[2] = target: ACE2(18–740)-QMP: truncated dimeric human ACE2 (residues 18–740) fused to the N-terminal end of engi (human) (UniProt Q9BYF1); experiment: SPR

Sequence of soluble His-tagged human neonatal Fc receptor (human FcRn-His) (P55899 24-297): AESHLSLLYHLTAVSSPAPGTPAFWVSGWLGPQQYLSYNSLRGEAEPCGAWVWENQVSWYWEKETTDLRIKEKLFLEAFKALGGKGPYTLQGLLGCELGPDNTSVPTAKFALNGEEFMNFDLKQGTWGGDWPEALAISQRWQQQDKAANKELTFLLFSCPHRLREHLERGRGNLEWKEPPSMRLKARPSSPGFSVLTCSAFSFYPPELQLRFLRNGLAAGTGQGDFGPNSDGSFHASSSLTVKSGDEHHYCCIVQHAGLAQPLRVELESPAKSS
Sequence of soluble His-tagged human neonatal Fc receptor (human FcRn-His) (P61769 21-119): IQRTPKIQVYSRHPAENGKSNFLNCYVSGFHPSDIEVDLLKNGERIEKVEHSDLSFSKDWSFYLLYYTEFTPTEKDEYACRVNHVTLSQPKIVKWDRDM

“soluble His-tagged human neonatal Fc receptor (human FcRn-His) (from UniProt P55899 24-297; P61769 21-119)” showed a Kd [1] of 800 pM, a koff [1] of 0.0002 s⁻¹ and a kon [2] of 254000 M⁻¹ s⁻¹.
